This passage reports Kd results from patent US20250270341A1 (Alector, published 2025).

Changes are numbered by the printed parent chain.

T1: huCD98hc ECD Avi-His (human, UniProt P08195 105-529)
T1 construct: biotinylated on the Avi tag where captured on streptavidin; also called Human CD98-AVI-His; Human CD98hc-AVI-His
T1 sequence: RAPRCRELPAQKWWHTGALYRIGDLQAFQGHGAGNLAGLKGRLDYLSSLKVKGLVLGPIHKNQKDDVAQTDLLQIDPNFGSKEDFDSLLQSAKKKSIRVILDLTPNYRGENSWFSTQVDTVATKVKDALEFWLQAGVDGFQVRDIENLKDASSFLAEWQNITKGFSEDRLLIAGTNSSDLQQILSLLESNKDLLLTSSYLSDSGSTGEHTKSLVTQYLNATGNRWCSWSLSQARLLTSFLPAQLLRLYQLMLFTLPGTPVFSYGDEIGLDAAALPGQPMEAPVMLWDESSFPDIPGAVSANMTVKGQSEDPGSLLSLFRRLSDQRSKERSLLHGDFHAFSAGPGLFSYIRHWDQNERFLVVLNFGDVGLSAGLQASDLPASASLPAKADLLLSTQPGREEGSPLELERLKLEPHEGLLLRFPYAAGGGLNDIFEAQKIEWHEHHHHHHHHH

T2: Cyno CD98hc ECD Avi-His (cynomolgus macaque, UniProt P08195 105-529 (human entry))
T2 construct: biotinylated on the Avi tag where captured on streptavidin; also called Cyno CD98-AVI-His; Cyno CD98hc-AVI-His
T2 chain: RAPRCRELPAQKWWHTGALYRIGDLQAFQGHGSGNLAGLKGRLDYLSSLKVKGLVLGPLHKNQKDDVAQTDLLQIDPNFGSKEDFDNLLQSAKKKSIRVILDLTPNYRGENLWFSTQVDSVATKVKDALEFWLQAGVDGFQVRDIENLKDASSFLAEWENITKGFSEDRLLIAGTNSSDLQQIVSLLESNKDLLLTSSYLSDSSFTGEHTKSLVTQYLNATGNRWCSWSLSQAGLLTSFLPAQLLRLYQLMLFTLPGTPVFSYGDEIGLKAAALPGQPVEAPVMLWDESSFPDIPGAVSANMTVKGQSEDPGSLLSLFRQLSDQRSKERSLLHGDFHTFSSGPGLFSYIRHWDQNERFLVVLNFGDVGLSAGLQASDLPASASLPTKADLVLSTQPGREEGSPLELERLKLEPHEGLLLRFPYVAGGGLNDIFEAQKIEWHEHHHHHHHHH

B1: CD98hc.04.064.4d (humanized, 2+1 format) (bispecific antibody)
scFv: QVQLVQSGAEVKKPGASVKVSCKASGYTFTSYWMHWVRQAPGQGLEWMGIIDPSDSETSYAQKFQGRVTMTRDTSTSTVYMELSSLRSEDTAVYYCARASYGKGYFDYWGQGTLVTVSSGGSEGKSSGSGSESKSTGGSDIQMTQSPSSLSASVGDRVTITCRASQSLLNNINQKNYLAWYQQKPGKAPKLLIYFASSLQSGVPSRFSGSGSGTDFTLTISSLQPEDFATYYCQQHYSSPFTFGGGTKVEIK
notes: tested as 2+1 bispecific (scFv on an IgG)
B2: CD98hc.04.064.1a (humanized, 2+1 format) (bispecific antibody)
scFv: QVQLVQSGAEVKKPGASVKVSCKASGYTFTSYWMNWVRQAPGQGLEWMGIIDPSDSETHYAQKFQGRVTMTVDKSTSTVYMELSSLRSEDTAVYYCARASYGKGYFDYWGQGTLVTVSSGGSEGKSSGSGSESKSTGGSDIVMTQSPDSLAVSLGERATINCKSSQSLLNNINQKNYLAWYQQKPGQPPKLLIYFASTRESGVPDRFSGSGSGTDFTLTISSLQAEDVAVYYCQQHYSSPFTFGGGTKVEIK
notes: as for B1
B3: CD98hc.04.064.4c (humanized, 2+1 format) (bispecific antibody)
scFv: B2 scFv with N35H, H59N, M70S, T76I, V79A, S85R, E89D, A92V
notes: as for B1
B4: CD98hc.04.064.1d (humanized, 2+1 format) (bispecific antibody)
scFv: B2 scFv with H59S
notes: as for B1
B5: CD98hc.04.064.1e (humanized, 2+1 format) (bispecific antibody)
scFv: B2 scFv with N35H
notes: as for B1
B6: CD98hc.04.064.4a (humanized, 2+1 format) (bispecific antibody)
scFv: B2 scFv with H59N, M70S, T76I, V79A, S85R, E89D, A92V
notes: as for B1
B7: CD98hc.04.064.4b (humanized, 2+1 format) (bispecific antibody)
scFv: B2 scFv with H59N, M70S, T76I, V79A, S85R, E89D, A92V, Y232F
notes: as for B1

The target of one assay is T1, huCD98hc ECD Avi-His. Briefly: SPR, Biacore T200, anti-kappa capture. Here is the method:
(§1) Binding kinetics of 2+1 anti-CD98hc bispecific antibodies to recombinant human and cynomolgus CD98hc ECD Avi-His were evaluated using a Biacore T200 instrument (Global Life Sciences Solutions USA LLC, Marlborough, MA). The 2+1 anti-CD98hc bispecific antibodies were prepared by diluting to 50 μg/mL in running buffer HBS-EP+ (Teknova) with 0.5 mg/mL BSA (MP Biomedicals) and captured by a goat anti-human kappa polyclonal antibody (Southern Biotech) surface that was prepared according to the instrument manufacturer's recommendations. Two independent experiments were performed as follows, resulting in an N of between one and […] determinations for each antibody. Estimates of affinity were generated by injecting each analyte over captured antibody on Flowcell 2, 3, or 4. CD98hc ECD Avi-His analytes were diluted with running buffer, in a series of five, three-fold serial dilutions starting from 600 nM. Analytes were injected without regeneration, from lowest to highest concentration, for 5 minutes each, and dissociation was followed for 15 minutes. After each analyte injection series, antibodies were regenerated with 10 mM glycine pH 2.0 buffer (Cytiva). Data were processed and analyzed using Biacore T200 BiaEvaluation software (Cytiva).
(§2) The equilibrium dissociation constants (KD) were calculated from the fitted association and dissociation rate constants (k-on and k-off) for 2+1 anti-CD98hc bispecific antibodies of the present disclosure binding to human and cynomolgus CD98hc ECD Avi-His. For measurements with N>1, means and standard deviation were calculated and measurements for all samples were combined and graphed using GraphPad Prism.
Usually Kd stands for the free concentration of one partner at which half of the binding sites on the other are occupied at equilibrium, for simple one-to-one binding. A higher Kd goes with a looser complex. Molecule B1 yielded a Kd of 12 nM.

The molecule B2 registered a Kd of 31 nM.

B3 showed a Kd of 17 nM.

B4: the Kd worked out at 24 nM.

Molecule B5 had a dissociation constant Kd of 13 nM.

Molecule B6 yielded a Kd of 34 nM.

The molecule B7 had a dissociation constant Kd of 30 nM.

A further assay addresses T2, Cyno CD98hc ECD Avi-His. Briefly: SPR, Biacore T200, anti-kappa capture. Here is the method: as §1, §2
(SPR reads the build-up and loss of mass on a sensor chip optically.)
Consider B1, for which the Kd amounted to 160 nM.

B2 came in with an equilibrium dissociation constant (Kd) of 880 nM.

Regarding B3, the affinity, expressed as Kd, was 310 nM.

B4 gave a Kd of 360 nM.

The molecule B5 returned a Kd of 120 nM.

B6: the Kd is 430 nM.

In turn, B7 gave a Kd of 620 nM.

Another assay addresses T1, huCD98hc ECD Avi-His. Description: SPR, Biacore T200, Protein A/G capture. On the procedure:
(§3) Binding kinetics of humanized anti-CD98hc antibodies were evaluated using the Biacore T200 (Cytiva). Briefly, IgGs were diluted to 10 μg/mL and captured using a Protein A/G (ThermoFisher, #21186) surface on a CM5 chip that was prepared by amine coupling according to the instrument manufacturer's recommendations. The captured antibodies were tested for their ability to bind human and cynomolgus monkey CD98hc as follows.
(§4) Each sample was injected for 2 minutes to allow association, followed by dissociation in buffer alone for 10 minutes. Each sample injection was followed by the regeneration of the chip with three 30-second injections of 10 mM glycine pH 1.7. Fresh antibody was captured at the beginning of each cycle.
(§5) Data were analyzed using Biacore evaluation software to generate kinetic constants. The equilibrium dissociation constants (KD) were calculated from the fitted association and dissociation rate constants (k-on and k-off) for each of the anti-CD98hc antibodies.
For the molecule B1, the Kd came out at 18 nM.

B4 came in with a Kd of 35 nM.

B5 returned a Kd of 25 nM.

The next assay concerns the target T2, Cyno CD98hc ECD Avi-His. Briefly: SPR, Biacore T200, Protein A/G capture. On the procedure: as §3, §4, §5
B1 came in with a dissociation constant Kd of 340 nM.

In turn, B4 gave a Kd of 1500 nM.

In turn, B5 returned a Kd of 740 nM.
